System: Escherichia coli TOP10
Assay: shrunken log2 fold change of peptide-encoding DNA abundance (4.5 h post-induction vs induction); higher = less antimicrobial activity (less host growth inhibition)
Conditions: time post-induction: 4.5 h; library: site-saturation at positions 5, 18, 19, 20
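Also: peptides expressed intracellularly from a pBAD plasmid library in pooled LB shake-flask culture, induced with 0.3% L-arabinose, DNA abundance read by NGS, three biological replicates, DESeq2 with apeglm shrinkage.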

Sequence | shrunken log2 fold change
RRIRIRPPRLPRPRPRPWCDPRP | -0.769
RRIRARPPRLPRPRPRPFVYPRP | -0.116
RRIRPRPPRLPRPRPRPHERPRP | 0.198
RRIRCRPPRLPRPRPRPRLNPRP | 0.00503
RRIRCRPPRLPRPRPRPKHYPRP | -0.518
RRIRSRPPRLPRPRPRPSLKPRP | 0.0541
RRIRLRPPRLPRPRPRPTEKPRP | -0.0343
RRIRQRPPRLPRPRPRPSWMPRP | -0.0569
RRIRDRPPRLPRPRPRPWVSPRP | -0.0385
RRIRKRPPRLPRPRPRPLKEPRP | 0.0921
RRIRARPPRLPRPRPRPWAMPRP | 0.0453
RRIRWRPPRLPRPRPRPECPPRP | 0.341
RRIRSRPPRLPRPRPRPTYLPRP | -0.399
RRIRSRPPRLPRPRPRPLVDPRP | 0.115
RRIRLRPPRLPRPRPRPADVPRP | -0.0469
RRIRMRPPRLPRPRPRPYVAPRP | -0.445
RRIRKRPPRLPRPRPRPQTEPRP | -0.0229
RRIRKRPPRLPRPRPRPSCEPRP | 0.401
RRIRKRPPRLPRPRPRPQQWPRP | 0.105
RRIRYRPPRLPRPRPRPAMQPRP | -0.0244

Sequence | shrunken log2 fold change
RRIRRRPPRLPRPRPRPGGFPRP | 0.36
RRIRFRPPRLPRPRPRPHVRPRP | -0.271
RRIRQRPPRLPRPRPRPFPMPRP | 0.155
RRIRGRPPRLPRPRPRPGNAPRP | 0.478
RRIRRRPPRLPRPRPRPCGAPRP | 0.503
RRIRYRPPRLPRPRPRPKHVPRP | -0.4
RRIRRRPPRLPRPRPRPKGFPRP | -0.12
RRIRARPPRLPRPRPRPRKWPRP | 1.28
RRIRRRPPRLPRPRPRPNDVPRP | -0.0736
RRIRMRPPRLPRPRPRPCRTPRP | -0.129
RRIRCRPPRLPRPRPRPVEHPRP | 0.0272
RRIRCRPPRLPRPRPRPCLNPRP | -0.589
RRIRVRPPRLPRPRPRPEEHPRP | -0.0681
RRIRTRPPRLPRPRPRPTMDPRP | -0.436
RRIRVRPPRLPRPRPRPHCVPRP | -0.315
RRIRSRPPRLPRPRPRPRAIPRP | 0.134
RRIRSRPPRLPRPRPRPTCAPRP | 0.301
RRIRYRPPRLPRPRPRPTEGPRP | -0.96
RRIRKRPPRLPRPRPRPLGRPRP | 1.35
RRIRVRPPRLPRPRPRPHQAPRP | 0.0697

Sequence | shrunken log2 fold change
RRIRTRPPRLPRPRPRPAEHPRP | -0.0944
RRIRNRPPRLPRPRPRPVDIPRP | 0.00355
RRIRSRPPRLPRPRPRPQDCPRP | -0.261
RRIRNRPPRLPRPRPRPLGWPRP | 0.367
RRIRTRPPRLPRPRPRPFNVPRP | -0.029
RRIRQRPPRLPRPRPRPPELPRP | 0.109
RRIRCRPPRLPRPRPRPPNLPRP | -0.0983
RRIRPRPPRLPRPRPRPNYVPRP | -0.352
RRIRLRPPRLPRPRPRPGLGPRP | 0.342
RRIRNRPPRLPRPRPRPVRSPRP | -0.00792
RRIRDRPPRLPRPRPRPKEQPRP | 0.0816
RRIRPRPPRLPRPRPRPSHHPRP | -0.529
RRIRNRPPRLPRPRPRPCLQPRP | -0.344
RRIRQRPPRLPRPRPRPRCSPRP | -0.232
RRIRERPPRLPRPRPRPCQTPRP | -0.397
RRIRIRPPRLPRPRPRPSFPPRP | -0.779
RRIRYRPPRLPRPRPRPYKEPRP | 0.043
RRIRYRPPRLPRPRPRPADNPRP | -0.938
RRIRARPPRLPRPRPRPMEGPRP | 0.667
RRIRERPPRLPRPRPRPNSCPRP | -0.128

— the supplement of paper PMC9112550, “Optimization of the antimicrobial peptide Bac7 by deep mutational scanning” (BMC Biology, 2022)
